Values belong to the substance of their own block, whether it stands above or below them.
Legend:
[1] = target: T1, ARFIP2 (prey, CIC format) (human) (UniProt P53365); experiment: SIMPL ELISA, bait-IN/prey-CIC
T1 sequence (looked up): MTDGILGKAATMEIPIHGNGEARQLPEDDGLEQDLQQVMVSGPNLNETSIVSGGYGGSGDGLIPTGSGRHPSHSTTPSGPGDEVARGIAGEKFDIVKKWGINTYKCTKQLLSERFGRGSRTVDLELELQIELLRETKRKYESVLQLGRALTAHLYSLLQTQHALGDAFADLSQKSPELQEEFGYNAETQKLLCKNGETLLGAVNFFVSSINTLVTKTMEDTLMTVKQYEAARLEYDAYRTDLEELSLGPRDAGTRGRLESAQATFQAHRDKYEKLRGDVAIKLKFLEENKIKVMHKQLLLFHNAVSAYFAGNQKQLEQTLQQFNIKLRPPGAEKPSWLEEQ

[2] = target: SKP2 (prey, CIC format) (human) (UniProt Q13309); experiment: SIMPL ELISA, bait-IN/prey-CIC
[3] = target: RAD23A (prey, CIC format) (human) (UniProt P54725); experiment: SIMPL ELISA, bait-IN/prey-CIC
[4] = target: PEX16 (prey, CIC format) (human) (UniProt Q9Y5Y5); experiment: SIMPL ELISA, bait-IN/prey-CIC
[5] = target: RAP1A (prey, CIC format) (human) (UniProt P62834); experiment: SIMPL ELISA, bait-IN/prey-CIC
[6] = target: CDK6 (prey, CIC format) (human) (UniProt Q00534); experiment: SIMPL ELISA, bait-IN/prey-CIC
[7] = target: CCNA1 (prey, CIC format) (human) (UniProt P78396); experiment: SIMPL ELISA, bait-IN/prey-CIC
[8] = target: T2, PEX11B (prey, CIC format) (human) (UniProt O96011); experiment: SIMPL ELISA, bait-IN/prey-CIC
T2 sequence (looked up): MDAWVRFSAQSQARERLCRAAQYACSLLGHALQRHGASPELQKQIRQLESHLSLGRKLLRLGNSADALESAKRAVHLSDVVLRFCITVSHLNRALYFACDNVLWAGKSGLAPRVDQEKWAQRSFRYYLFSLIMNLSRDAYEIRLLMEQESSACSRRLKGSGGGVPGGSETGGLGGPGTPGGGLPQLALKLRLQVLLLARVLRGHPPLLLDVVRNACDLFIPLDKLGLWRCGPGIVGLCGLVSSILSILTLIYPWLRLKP

[9] = target: FOS (prey, CIC format) (human) (UniProt P01100); experiment: SIMPL ELISA, bait-IN/prey-CIC
[10] = target: T3, NRG1 (prey, CIC format) (human) (UniProt Q02297); experiment: SIMPL ELISA, bait-IN/prey-CIC
T3 sequence (looked up): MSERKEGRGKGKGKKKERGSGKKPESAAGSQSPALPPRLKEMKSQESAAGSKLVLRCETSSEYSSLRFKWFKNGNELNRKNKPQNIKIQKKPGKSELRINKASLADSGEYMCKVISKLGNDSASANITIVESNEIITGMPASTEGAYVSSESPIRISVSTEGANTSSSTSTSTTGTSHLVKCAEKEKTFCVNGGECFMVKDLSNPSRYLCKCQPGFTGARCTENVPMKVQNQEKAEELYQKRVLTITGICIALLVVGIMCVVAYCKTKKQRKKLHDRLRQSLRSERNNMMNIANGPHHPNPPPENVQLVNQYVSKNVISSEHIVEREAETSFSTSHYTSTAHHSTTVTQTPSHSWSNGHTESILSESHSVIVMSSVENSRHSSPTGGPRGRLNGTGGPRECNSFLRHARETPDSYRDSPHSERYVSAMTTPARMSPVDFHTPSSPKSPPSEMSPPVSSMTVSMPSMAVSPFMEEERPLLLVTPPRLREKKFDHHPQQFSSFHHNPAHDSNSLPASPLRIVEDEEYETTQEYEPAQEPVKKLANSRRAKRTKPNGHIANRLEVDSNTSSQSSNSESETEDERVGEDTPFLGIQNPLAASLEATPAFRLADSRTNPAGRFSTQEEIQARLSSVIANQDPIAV

[11] = target: SKR-2 (C. elegans prey, IC format) (C. elegans); experiment: SIMPL ELISA, C. elegans lysate, IN/IC; ratio of spliced signal to total signal
[12] = target: SKR-2 (C. elegans prey, CIC format) (C. elegans); experiment: SIMPL ELISA, C. elegans lysate, IN/CIC; ratio of spliced signal to total signal
[13] = target: NCK1 (prey, CIC format) (human) (UniProt P16333); experiment: SIMPL ELISA, bait-IN/prey-CIC
[14] = target: FGFR1 (prey, CIC format) (human) (UniProt P11362); experiment: SIMPL ELISA, bait-IN/prey-CIC
[15] = target: T4, RB1 (prey, CIC format) (human) (UniProt P06400); experiment: SIMPL ELISA, bait-IN/prey-CIC
T4 sequence (looked up): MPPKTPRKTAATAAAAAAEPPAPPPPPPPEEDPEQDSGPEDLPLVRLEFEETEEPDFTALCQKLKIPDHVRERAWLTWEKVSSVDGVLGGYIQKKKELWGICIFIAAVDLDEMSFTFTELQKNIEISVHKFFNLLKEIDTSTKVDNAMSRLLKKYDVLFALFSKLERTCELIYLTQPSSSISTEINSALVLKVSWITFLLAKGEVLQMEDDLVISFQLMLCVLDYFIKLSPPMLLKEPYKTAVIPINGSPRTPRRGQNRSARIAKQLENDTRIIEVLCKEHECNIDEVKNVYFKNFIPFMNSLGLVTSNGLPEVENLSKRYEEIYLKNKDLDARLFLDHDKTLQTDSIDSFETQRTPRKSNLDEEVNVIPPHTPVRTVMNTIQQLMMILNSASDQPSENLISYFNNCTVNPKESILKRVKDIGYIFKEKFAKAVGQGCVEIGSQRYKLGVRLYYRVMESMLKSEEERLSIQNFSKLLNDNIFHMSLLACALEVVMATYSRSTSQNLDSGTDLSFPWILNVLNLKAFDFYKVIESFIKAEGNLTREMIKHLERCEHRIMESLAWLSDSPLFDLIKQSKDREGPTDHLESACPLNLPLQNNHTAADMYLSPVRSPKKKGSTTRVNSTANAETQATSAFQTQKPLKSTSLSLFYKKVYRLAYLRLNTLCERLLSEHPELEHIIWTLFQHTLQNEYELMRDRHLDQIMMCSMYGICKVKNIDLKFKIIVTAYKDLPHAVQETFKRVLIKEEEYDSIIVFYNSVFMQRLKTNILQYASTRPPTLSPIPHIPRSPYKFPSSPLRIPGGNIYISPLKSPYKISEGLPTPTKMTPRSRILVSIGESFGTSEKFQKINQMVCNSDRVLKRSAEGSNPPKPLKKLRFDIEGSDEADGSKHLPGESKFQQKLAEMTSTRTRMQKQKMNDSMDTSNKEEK

[16] = target: NFE2L1 (prey, CIC format) (human) (UniProt Q14494); experiment: SIMPL ELISA, bait-IN/prey-CIC
[17] = target: T5, NOD1 (prey, CIC format) (human) (UniProt Q9Y239); experiment: SIMPL ELISA, bait-IN/prey-CIC
T5 sequence (looked up): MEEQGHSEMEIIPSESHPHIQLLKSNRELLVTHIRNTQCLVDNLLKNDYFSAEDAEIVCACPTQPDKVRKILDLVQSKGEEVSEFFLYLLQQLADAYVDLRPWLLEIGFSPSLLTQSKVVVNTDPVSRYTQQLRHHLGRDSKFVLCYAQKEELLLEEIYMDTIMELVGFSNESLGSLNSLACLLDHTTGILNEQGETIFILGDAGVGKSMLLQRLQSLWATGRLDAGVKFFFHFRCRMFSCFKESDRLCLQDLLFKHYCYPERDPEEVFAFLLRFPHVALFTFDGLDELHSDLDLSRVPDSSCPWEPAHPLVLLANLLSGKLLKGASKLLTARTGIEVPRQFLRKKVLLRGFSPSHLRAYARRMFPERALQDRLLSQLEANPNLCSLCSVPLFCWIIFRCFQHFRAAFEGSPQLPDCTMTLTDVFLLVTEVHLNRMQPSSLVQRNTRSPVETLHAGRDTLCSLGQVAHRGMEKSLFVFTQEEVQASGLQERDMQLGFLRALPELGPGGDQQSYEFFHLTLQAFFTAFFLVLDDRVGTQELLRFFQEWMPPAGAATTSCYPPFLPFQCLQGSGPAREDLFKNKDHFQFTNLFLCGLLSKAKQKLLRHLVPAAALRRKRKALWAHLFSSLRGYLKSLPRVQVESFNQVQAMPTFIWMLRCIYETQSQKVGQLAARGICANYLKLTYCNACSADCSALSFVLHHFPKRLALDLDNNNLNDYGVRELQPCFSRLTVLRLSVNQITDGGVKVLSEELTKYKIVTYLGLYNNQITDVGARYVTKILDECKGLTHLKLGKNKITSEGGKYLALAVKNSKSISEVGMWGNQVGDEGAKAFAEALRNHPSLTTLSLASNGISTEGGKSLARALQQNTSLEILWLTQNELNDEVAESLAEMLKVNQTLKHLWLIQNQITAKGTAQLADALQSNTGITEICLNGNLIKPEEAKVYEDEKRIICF

[18] = target: GTF2F2 (prey, CIC format) (human) (UniProt P13984); experiment: SIMPL ELISA, bait-IN/prey-CIC
[19] = target: RPA3 (prey, CIC format) (human) (UniProt P35244); experiment: SIMPL ELISA, bait-IN/prey-CIC
[20] = target: IGFBP4 (prey, CIC format) (human) (UniProt P22692); experiment: SIMPL ELISA, bait-IN/prey-CIC
[21] = target: HSP90AA1 (prey, CIC format) (human) (UniProt P07900); experiment: SIMPL ELISA, bait-IN/prey-CIC
[22] = target: HGS (prey, CIC format) (human) (UniProt O14964); experiment: SIMPL ELISA, bait-IN/prey-CIC
[23] = target: SRC (prey, CIC format) (human) (UniProt P12931); experiment: SIMPL ELISA, bait-IN/prey-CIC
[24] = target: PDGFRB (prey, CIC format) (human) (UniProt P09619); experiment: SIMPL ELISA, bait-IN/prey-CIC
[25] = target: CXCR2 (prey, CIC format) (human) (UniProt P25025); experiment: SIMPL ELISA, bait-IN/prey-CIC
[26] = target: SMAD4 (prey, CIC format) (human) (UniProt Q13485); experiment: SIMPL ELISA, bait-IN/prey-CIC

Chain of FOS (prey, CIC format) (human) (P01100 whole entry): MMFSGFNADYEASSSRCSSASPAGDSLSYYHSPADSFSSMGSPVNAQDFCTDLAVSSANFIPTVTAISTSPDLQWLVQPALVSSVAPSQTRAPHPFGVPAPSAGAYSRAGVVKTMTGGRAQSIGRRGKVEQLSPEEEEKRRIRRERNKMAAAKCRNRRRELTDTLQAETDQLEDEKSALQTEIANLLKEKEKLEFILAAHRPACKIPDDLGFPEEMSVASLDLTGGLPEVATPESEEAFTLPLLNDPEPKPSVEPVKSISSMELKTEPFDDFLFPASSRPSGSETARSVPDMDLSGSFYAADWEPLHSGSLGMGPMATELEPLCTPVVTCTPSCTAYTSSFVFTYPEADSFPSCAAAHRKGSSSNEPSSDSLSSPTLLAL
Chain of RIPK2 (bait, IN format) (O43353 whole entry): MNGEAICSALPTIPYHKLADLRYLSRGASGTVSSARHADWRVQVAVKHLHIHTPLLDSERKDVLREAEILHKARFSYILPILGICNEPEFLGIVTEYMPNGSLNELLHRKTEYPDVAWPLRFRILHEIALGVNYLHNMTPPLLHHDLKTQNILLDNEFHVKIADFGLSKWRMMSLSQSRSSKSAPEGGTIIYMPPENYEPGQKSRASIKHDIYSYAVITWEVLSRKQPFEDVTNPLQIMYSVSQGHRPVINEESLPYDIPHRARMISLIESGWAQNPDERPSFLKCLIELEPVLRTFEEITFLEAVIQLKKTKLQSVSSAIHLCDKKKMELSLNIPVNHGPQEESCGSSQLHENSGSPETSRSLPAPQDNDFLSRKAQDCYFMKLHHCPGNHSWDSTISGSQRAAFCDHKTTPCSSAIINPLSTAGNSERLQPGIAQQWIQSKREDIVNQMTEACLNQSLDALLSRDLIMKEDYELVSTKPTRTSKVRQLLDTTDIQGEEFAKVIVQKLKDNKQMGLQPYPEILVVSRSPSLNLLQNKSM
Chain of RAP1A (prey, CIC format) (human) (P62834 whole entry): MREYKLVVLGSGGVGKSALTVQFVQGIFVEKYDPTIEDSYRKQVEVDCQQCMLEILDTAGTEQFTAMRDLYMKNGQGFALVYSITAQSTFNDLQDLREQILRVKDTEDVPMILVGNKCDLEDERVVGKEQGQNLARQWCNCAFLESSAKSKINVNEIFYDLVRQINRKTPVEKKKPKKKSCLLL
Chain of PEX16 (prey, CIC format) (human) (Q9Y5Y5 whole entry): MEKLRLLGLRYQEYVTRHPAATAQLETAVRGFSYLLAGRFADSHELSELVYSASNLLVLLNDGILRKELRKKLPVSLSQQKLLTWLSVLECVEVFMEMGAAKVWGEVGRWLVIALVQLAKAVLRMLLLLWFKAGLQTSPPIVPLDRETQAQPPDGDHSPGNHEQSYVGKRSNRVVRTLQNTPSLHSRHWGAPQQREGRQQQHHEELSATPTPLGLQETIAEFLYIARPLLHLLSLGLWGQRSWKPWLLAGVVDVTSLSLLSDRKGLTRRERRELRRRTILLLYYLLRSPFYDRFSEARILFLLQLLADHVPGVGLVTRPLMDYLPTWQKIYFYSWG
Chain of CDK6 (prey, CIC format) (human) (Q00534 whole entry): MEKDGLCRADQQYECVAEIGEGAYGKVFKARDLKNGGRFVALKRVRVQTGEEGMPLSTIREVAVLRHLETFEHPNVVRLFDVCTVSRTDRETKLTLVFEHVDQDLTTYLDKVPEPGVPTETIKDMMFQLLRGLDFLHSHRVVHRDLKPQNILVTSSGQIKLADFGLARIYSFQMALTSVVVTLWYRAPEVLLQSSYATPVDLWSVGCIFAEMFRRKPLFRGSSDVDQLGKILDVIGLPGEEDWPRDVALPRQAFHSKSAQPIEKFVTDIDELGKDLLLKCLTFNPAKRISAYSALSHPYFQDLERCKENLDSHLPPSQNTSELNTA
Chain of IGFBP4 (prey, CIC format) (human) (P22692 22-258 limits assumed): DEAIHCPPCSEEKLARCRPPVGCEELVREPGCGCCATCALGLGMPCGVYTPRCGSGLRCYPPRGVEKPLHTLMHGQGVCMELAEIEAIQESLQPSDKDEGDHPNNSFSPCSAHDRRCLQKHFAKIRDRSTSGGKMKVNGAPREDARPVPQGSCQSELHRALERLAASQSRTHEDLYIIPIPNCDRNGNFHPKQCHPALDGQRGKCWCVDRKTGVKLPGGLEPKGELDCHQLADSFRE
Chain of RPA3 (prey, CIC format) (human) (P35244 whole entry): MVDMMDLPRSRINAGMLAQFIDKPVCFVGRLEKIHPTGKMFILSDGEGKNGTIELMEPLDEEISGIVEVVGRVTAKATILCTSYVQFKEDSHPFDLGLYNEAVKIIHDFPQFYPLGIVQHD
Chain of NFE2L1 (prey, CIC format) (human) (Q14494 whole entry): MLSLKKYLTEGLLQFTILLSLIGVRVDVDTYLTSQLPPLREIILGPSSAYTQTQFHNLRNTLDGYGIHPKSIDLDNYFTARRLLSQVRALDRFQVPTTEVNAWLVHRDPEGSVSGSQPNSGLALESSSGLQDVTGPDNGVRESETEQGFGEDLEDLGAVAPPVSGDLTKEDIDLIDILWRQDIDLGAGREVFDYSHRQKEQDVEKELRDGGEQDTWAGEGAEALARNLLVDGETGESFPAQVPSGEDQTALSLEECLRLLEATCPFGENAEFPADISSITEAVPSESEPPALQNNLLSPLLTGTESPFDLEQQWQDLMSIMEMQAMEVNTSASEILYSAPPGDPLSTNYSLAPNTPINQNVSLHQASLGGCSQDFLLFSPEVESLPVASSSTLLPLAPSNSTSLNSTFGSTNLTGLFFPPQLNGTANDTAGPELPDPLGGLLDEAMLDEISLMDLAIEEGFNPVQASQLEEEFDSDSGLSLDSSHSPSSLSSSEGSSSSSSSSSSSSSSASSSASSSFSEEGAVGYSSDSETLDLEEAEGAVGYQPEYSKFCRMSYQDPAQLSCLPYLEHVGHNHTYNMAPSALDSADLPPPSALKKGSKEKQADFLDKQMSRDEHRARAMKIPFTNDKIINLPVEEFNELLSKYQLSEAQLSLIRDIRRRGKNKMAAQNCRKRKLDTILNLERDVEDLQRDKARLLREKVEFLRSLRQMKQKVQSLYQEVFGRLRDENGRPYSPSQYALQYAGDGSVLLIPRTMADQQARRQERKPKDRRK
Chain of GTF2F2 (prey, CIC format) (human) (P13984 whole entry): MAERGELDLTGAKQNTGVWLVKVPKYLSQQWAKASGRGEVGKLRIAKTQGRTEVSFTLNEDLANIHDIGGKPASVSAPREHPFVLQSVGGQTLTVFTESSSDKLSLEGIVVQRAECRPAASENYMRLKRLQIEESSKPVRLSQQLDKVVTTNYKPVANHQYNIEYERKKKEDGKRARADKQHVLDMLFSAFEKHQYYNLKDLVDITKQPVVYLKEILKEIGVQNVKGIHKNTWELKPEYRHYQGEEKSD
Chain of HGS (prey, CIC format) (human) (O14964 whole entry): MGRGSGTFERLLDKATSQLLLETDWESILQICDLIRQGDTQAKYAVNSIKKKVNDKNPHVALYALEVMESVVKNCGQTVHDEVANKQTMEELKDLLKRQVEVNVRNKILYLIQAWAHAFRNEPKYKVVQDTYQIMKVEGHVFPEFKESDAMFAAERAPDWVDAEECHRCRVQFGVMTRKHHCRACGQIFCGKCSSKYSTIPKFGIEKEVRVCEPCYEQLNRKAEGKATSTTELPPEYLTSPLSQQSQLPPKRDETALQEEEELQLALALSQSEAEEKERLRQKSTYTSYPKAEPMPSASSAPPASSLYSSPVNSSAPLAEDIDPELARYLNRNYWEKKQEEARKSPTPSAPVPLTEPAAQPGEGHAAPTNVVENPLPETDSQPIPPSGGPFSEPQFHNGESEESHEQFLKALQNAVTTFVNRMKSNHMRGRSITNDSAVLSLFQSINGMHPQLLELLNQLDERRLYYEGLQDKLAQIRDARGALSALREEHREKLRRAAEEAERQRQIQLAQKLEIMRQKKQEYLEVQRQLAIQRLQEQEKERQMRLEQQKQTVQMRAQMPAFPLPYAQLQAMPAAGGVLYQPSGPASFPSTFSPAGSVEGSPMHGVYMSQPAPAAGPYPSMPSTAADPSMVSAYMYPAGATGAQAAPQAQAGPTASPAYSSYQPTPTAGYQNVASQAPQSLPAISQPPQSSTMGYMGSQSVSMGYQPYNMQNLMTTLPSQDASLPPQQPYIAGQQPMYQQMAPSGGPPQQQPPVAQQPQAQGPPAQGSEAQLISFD
Chain of CCNA1 (prey, CIC format) (human) (P78396 whole entry): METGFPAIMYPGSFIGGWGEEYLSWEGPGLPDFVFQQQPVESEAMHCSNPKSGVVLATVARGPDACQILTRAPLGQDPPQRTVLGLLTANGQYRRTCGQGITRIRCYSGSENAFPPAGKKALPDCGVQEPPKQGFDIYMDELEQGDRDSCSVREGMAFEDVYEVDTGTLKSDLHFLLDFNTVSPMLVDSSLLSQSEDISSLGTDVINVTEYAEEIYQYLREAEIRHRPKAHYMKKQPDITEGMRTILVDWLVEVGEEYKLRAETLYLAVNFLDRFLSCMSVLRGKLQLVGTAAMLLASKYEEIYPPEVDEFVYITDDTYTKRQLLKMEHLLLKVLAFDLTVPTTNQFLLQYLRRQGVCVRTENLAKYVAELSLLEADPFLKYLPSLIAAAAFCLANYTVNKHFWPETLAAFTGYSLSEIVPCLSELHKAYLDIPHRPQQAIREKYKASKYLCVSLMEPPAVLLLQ
Chain of CXCR2 (prey, CIC format) (human) (P25025 whole entry): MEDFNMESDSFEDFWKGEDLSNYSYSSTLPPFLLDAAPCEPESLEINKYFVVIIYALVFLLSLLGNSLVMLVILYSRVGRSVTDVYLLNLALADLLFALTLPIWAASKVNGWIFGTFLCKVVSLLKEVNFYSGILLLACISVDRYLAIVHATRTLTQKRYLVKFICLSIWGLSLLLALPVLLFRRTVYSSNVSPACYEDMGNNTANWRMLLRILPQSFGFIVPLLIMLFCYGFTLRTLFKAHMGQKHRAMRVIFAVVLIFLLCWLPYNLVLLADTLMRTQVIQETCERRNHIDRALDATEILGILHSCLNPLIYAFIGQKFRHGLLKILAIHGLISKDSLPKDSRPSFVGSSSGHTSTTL

Substance: B2M (bait, IN format) (from UniProt P61769 21-119)
- PLU mean [3]: 0.0155
- PLU mean [4]: 0.0408

Substance: BAK1 (bait, IN format) (from UniProt Q16611 1-211)
- PLU mean [5]: 0.564

Substance: FBXA-215 (C. elegans bait, IN-V5/HA)
- ELISA Value Replicate 1 [11]: 0.84
- ELISA Value Replicate 2 [11]: 0.58
- ELISA Value Replicate 1 [12]: 0.73
- ELISA Value Replicate 2 [12]: 0.42

Substance: FGF1 (bait, IN format) (from UniProt P05230 1-155) (ligand)
- PLU mean [13]: 0.374
- PLU mean [14]: 0.334
- PLU mean [15]: 0.324

Substance: GTF2F1 (bait, IN format) (from UniProt P35269 1-517)
- PLU mean [17]: 0.133
- PLU mean [18]: 3.24

Substance: IGF2 (bait, IN format) (from UniProt P01344 25-180) (ligand)
- PLU mean [19]: 0.525
- PLU mean [1]: 0.266
- PLU mean [20]: 0.943
- PLU mean [21]: 0.404

Substance: MAPK7 (bait, IN format) (from UniProt Q13164 1-816) (enzyme)
- PLU mean [4]: 0.231

Substance: PPP3CA (bait, IN format) (from UniProt Q08209 1-521)
- PLU mean [9]: 0.245

Substance: RAF1 (bait, IN format) (from UniProt P04049 1-648) (enzyme)
- PLU mean [5]: 0.578

Substance: T10E9.1 (C. elegans bait, IN-V5/HA)
- ELISA Value Replicate 1 [11]: 0.78
- ELISA Value Replicate 2 [11]: 0.55

Substance: TNFSF10 (bait, IN format) (from UniProt P50591 1-281) (ligand)
- PLU mean [6]: 0.316

Next, values leading:

- PLU mean [1]: 0.491
- PLU mean [2]: 0.301
Substance: ARF1 (bait, IN format) (from UniProt P84077 1-181)

- PLU mean [6]: 2.72
Substance: CCND3 (bait, IN format) (from UniProt P30281 1-292)

- PLU mean [7]: 0.516
- PLU mean [8]: 0.113
Substance: CDKN1A (bait, IN format) (from UniProt P38936 1-164)

- PLU mean [9]: 0.642
- PLU mean [10]: 0.0963
Substance: DDIT3 (bait, IN format) (from UniProt P35638 1-169)

- ELISA Value Replicate 1 [11]: 0.81
- ELISA Value Replicate 2 [11]: 0.51
- ELISA Value Replicate 1 [12]: 1.1
- ELISA Value Replicate 2 [12]: 0.28
Substance: FBXA-196 (C. elegans bait, IN-V5/HA)

- PLU mean [16]: 0.131
Substance: GRAP2 (bait, IN format) (from UniProt O75791 1-330)

- PLU mean [1]: 0.324
Substance: HIF1A (bait, IN format) (from UniProt Q16665 1-826)

- PLU mean [9]: 0.481
- PLU mean [22]: 0.836
Substance: NF2 (bait, IN format) (from UniProt P35240 1-595)

- PLU mean [23]: 0.599
Substance: PTK2/FAK (bait, IN format) (from UniProt Q05397 1-1052) (enzyme)

- PLU mean [20]: 0.555
- PLU mean [17]: 1.17
- PLU mean [24]: 0.881
Substance: RIPK2 (bait, IN format) (from UniProt O43353 1-540)

- PLU mean [25]: 0.144
- PLU mean [26]: 0.399
Substance: SMAD3 (bait, IN format) (from UniProt P84022 1-425)

Source: patent US20220229068A1, “DETECTION OF PROTEIN TO PROTEIN INTERACTIONS” (THE GOVERNING COUNCIL OF THE UNIVERSITY OF TORONTO, priority 2019, published 2022)
